Source: patent US20150148403A1 (ACADEMIA SINICA, published 2015)

T1: Flag-tagged USP37 (human, UniProt Q86T82 1-979)
T1 construct: Expressed in transfected HEK-293T cells and tested in lysate by co-immunoprecipitation; also called Flag-USP37; USP37 WT; not shown: 3xFLAG tag from the pCMV-3xFLAG vector
T1 sequence: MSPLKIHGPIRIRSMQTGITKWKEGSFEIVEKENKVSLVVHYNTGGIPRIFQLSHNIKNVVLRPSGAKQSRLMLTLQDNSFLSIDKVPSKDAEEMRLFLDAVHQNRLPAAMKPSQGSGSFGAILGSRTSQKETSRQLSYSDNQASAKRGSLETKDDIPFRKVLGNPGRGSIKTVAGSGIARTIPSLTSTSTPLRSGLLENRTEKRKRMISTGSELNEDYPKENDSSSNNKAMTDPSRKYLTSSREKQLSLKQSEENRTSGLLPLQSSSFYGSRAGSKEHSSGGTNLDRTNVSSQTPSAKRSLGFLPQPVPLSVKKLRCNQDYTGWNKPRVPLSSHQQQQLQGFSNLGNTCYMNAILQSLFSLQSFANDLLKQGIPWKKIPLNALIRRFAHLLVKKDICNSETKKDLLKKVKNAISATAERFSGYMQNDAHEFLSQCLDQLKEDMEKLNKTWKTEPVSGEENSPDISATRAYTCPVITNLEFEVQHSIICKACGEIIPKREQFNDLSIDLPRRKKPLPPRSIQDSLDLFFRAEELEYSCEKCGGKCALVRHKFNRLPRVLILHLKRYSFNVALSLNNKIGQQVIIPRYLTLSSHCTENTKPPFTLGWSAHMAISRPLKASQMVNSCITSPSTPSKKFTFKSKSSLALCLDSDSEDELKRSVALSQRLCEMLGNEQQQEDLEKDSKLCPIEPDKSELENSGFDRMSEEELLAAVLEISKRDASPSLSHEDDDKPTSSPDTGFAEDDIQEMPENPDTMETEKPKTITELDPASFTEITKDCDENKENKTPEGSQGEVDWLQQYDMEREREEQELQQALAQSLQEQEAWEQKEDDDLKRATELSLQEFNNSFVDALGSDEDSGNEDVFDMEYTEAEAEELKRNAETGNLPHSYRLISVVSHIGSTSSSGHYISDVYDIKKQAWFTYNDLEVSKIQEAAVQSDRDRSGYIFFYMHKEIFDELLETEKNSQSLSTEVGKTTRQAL


What was measured:
[1] = target: poly-ubiquitinated PLZF/RARA immunoprecipitated from HEK-293T cells expressing Flag-tagged PLZF/RARA and Myc-tagged Ub
Flag-tagged USP37 = target: T1, Flag-tagged USP37; experiment: co-immunoprecipitation from transfected HEK-293T cells

| Binder | in vitro deubiquitination of poly-ubiquitinated PLZF/RARA (immunoblot) [1] | binding result (Flag-tagged USP37) |
| --- | --- | --- |
| MBP-fused USP37 recombinant protein (protein) MSPLKIHGPIRIRSMQTGITKWKEGSFEIVEKENKVSLVVHYNTGGIPRIFQLSHNIKNVVLRPSGAKQSRLMLTLQDNSFLSIDKVPSKDAEEMRLFLDAVHQNRLPAAMKPSQGSGSFGAILGSRTSQKETSRQLSYSDNQASAKRGSLETKDDIPFRKVLGNPGRGSIKTVAGSGIARTIPSLTSTSTPLRSGLLENRTEKRKRMISTGSELNEDYPKENDSSSNNKAMTDPSRKYLTSSREKQLSLKQSEENRTSGLLPLQSSSFYGSRAGSKEHSSGGTNLDRTNVSSQTPSAKRSLGFLPQPVPLSVKKLRCNQDYTGWNKPRVPLSSHQQQQLQGFSNLGNTCYMNAILQSLFSLQSFANDLLKQGIPWKKIPLNALIRRFAHLLVKKDICNSETKKDLLKKVKNAISATAERFSGYMQNDAHEFLSQCLDQLKEDMEKLNKTWKTEPVSGEENSPDISATRAYTCPVITNLEFEVQHSIICKACGEIIPKREQFNDLSIDLPRRKKPLPPRSIQDSLDLFFRAEELEYSCEKCGGKCALVRHKFNRLPRVLILHLKRYSFNVALSLNNKIGQQVIIPRYLTLSSHCTENTKPPFTLGWSAHMAISRPLKASQMVNSCITSPSTPSKKFTFKSKSSLALCLDSDSEDELKRSVALSQRLCEMLGNEQQQEDLEKDSKLCPIEPDKSELENSGFDRMSEEELLAAVLEISKRDASPSLSHEDDDKPTSSPDTGFAEDDIQEMPENPDTMETEKPKTITELDPASFTEITKDCDENKENKTPEGSQGEVDWLQQYDMEREREEQELQQALAQSLQEQEAWEQKEDDDLKRATELSLQEFNNSFVDALGSDEDSGNEDVFDMEYTEAEAEELKRNAETGNLPHSYRLISVVSHIGSTSSSGHYISDVYDIKKQAWFTYNDLEVSKIQEAAVQSDRDRSGYIFFYMHKEIFDELLETEKNSQSLSTEVGKTTRQAL | the recombinant USP37 WT but not CA mutant could deubiquitinate PLZF/RARA in vitro |  |
| recombinant USP37 CA mutant (USP37 C350A) (protein) MSPLKIHGPIRIRSMQTGITKWKEGSFEIVEKENKVSLVVHYNTGGIPRIFQLSHNIKNVVLRPSGAKQSRLMLTLQDNSFLSIDKVPSKDAEEMRLFLDAVHQNRLPAAMKPSQGSGSFGAILGSRTSQKETSRQLSYSDNQASAKRGSLETKDDIPFRKVLGNPGRGSIKTVAGSGIARTIPSLTSTSTPLRSGLLENRTEKRKRMISTGSELNEDYPKENDSSSNNKAMTDPSRKYLTSSREKQLSLKQSEENRTSGLLPLQSSSFYGSRAGSKEHSSGGTNLDRTNVSSQTPSAKRSLGFLPQPVPLSVKKLRCNQDYTGWNKPRVPLSSHQQQQLQGFSNLGNTAYMNAILQSLFSLQSFANDLLKQGIPWKKIPLNALIRRFAHLLVKKDICNSETKKDLLKKVKNAISATAERFSGYMQNDAHEFLSQCLDQLKEDMEKLNKTWKTEPVSGEENSPDISATRAYTCPVITNLEFEVQHSIICKACGEIIPKREQFNDLSIDLPRRKKPLPPRSIQDSLDLFFRAEELEYSCEKCGGKCALVRHKFNRLPRVLILHLKRYSFNVALSLNNKIGQQVIIPRYLTLSSHCTENTKPPFTLGWSAHMAISRPLKASQMVNSCITSPSTPSKKFTFKSKSSLALCLDSDSEDELKRSVALSQRLCEMLGNEQQQEDLEKDSKLCPIEPDKSELENSGFDRMSEEELLAAVLEISKRDASPSLSHEDDDKPTSSPDTGFAEDDIQEMPENPDTMETEKPKTITELDPASFTEITKDCDENKENKTPEGSQGEVDWLQQYDMEREREEQELQQALAQSLQEQEAWEQKEDDDLKRATELSLQEFNNSFVDALGSDEDSGNEDVFDMEYTEAEAEELKRNAETGNLPHSYRLISVVSHIGSTSSSGHYISDVYDIKKQAWFTYNDLEVSKIQEAAVQSDRDRSGYIFFYMHKEIFDELLETEKNSQSLSTEVGKTTRQAL | the recombinant USP37 WT but not CA mutant could deubiquitinate PLZF/RARA in vitro |  |
| HA-tagged RARA (receptor, UniProt P10276 1-462, looked up, Expressed in transfected HEK-293T cells; not shown: HA tag) MASNSSSCPTPGGGHLNGYPVPPYAFFFPPMLGGLSPPGALTTLQHQLPVSGYSTPSPATIETQSSSSEEIVPSPPSPPPLPRIYKPCFVCQDKSSGYHYGVSACEGCKGFFRRSIQKNMVYTCHRDKNCIINKVTRNRCQYCRLQKCFEVGMSKESVRNDRNKKKKEVPKPECSESYTLTPEVGELIEKVRKAHQETFPALCQLGKYTTNNSSEQRVSLDIDLWDKFSELSTKCIIKTVEFAKQLPGFTTLTIADQITLLKAACLDILILRICTRYTPEQDTMTFSDGLTLNRTQMHNAGFGPLTDLVFAFANQLLPLEMDDAETGLLSAICLICGDRQDLEQPDRVDMLQEPLLEALKVYVRKRRPSRPHMFPKMLMKITDLRSISAKGAERVITLKMEIPGSMPPLIQEMLENSEGLDTLSGQPGGGGRDGGGLAPPPGSCSPSLSPSSNRSSPATHSP |  | no binding |
